Results published in patent US20260139049A1 (published 2026).
Where a chain is given by its changes, count along the chain named.

T1: monkey CLDN6 (Cyno CLDN6) (monkey (Cyno))
T1 chain: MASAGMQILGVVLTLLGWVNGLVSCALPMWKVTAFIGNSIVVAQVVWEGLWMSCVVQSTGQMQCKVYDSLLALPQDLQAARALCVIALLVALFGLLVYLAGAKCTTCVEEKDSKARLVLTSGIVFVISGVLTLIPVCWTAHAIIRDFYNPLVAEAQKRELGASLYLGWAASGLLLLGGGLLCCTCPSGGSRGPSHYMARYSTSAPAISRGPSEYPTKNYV

T2: mouse CLDN6 (mouse, UniProt Q9Z262 1-219)
T2 chain: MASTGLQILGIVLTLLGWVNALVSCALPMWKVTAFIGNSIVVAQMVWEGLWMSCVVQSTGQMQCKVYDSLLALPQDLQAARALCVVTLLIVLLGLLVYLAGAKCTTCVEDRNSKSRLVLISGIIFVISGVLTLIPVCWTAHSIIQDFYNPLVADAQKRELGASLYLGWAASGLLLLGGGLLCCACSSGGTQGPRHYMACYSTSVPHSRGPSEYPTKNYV

T3: human CLDN6 (human, UniProt P56747 1-220)
T3 chain: T1 chain with R191Q

B1: PiH2006 (antibody, V domains shown)
VH: QVQLVQSGAEVKKPGASVKVSCKASGYTFTDYNMHWVRQAPGQRLEWIGYINPNNGATNYNQKFKGRVTITVDTSASTAYMELSSLRSEDTAVYNCARWDGYVYYYGMDYWGQGTLVTVSS
VL: DIQMTQSPSSLSASVGGRVTITCKASDHINNWLAWYQQKPGKAPKLLISGATSLETGVPSRFSGSGSGTDYTFTISSLQPEDIATYYCQQYWNTPYTFGGGTKLEIKR
B2: IMAB027 (antibody, V domains shown)
VH: EVQLQQSGPELVKPGASMKISCKASGYSFTGYTMNWVKQSHGKNLEWIGLINPYNGGTIYNQKFKGKATLTVDKSSSTAYMELLSLTSEDSAVYYCARDYGFVLDYWGQGTTLTVSS
VL: IVLTQSPAIMSASPGEKVTITCSASSSVSYLHWFQQKPGTSPKLWVYSTSNLPSGVPARFGGSGSGTSYSLTISRMEAEDAATYYCQQRSIYPPWTFGGGTKLEIKR
B3: PiH1006 (antibody, V domains shown)
VH: B1 VH with R44G, I51V, N59S, I70M, A76T, A79V, M108L
VL: B1 VL with A43V, K45R, F73L, I83V, N93S
B4: PiH1004 (antibody, V domains shown)
VH: B1 VH with R44S, I51V, N59S, V68A, I70M, T74K, A76T, A79V, M108L
VL: B1 VL with G17D, A43V, F73L, I83V, N93S
B5: PiH1008 (antibody, V domains shown)
VH: B1 VH with R44S, I51V, N59S, V68A, I70M, T74K, A76T, A79V, M108L
VL: B1 VL with A43V, K45R, F73L, I83V, N93S
B6: 54B5A7 (antibody, V domains shown)
VH: EVQLQQSGPELVKPGASVKMSCKASGYTFTDYNMHWVKKSHGKSLEWIGYINPNNGATNYNQKFKGKATLTVNKSSSTAYMELRSLTSEDSAVYNCARWDGYVYYYGMDYWGQGTSVTVSS
VL: DIQMTQSSSYLSVSLGGRVTITCKASDHINNWLAWYQQKPGNAPRLLISGATSLETGVPSRFSGSGSGKDYTLSITSLQTEDVATYYCQQYWNTPYTFGGGTKLEIKR
B7: 51C10H4 (antibody, V domains shown)
VH: B6 VH with I51V, N59S, M108L
VL: B6 VL with N93S
B8: RecA101 (antibody, V domains shown)
VH: B6 VH with I51V, N59S, M108L
VL: B6 VL

Target: T1, monkey CLDN6 (Cyno CLDN6)
Experiment: FACS

Q: How did the EC50 turn out when B1 was run?
A: 1.33 µg/mL

Q: B2 was tested. Which EC50 did it give?
A: 0.0916 µg/mL

Target: T2, mouse CLDN6
Experiment: FACS

Q: With B1 as the binder, how does the EC50 read?
A: 52.3 µg/mL

Q: How did the EC50 turn out when B3 was run?
A: 18.4 µg/mL

Q: For B4, which EC50 is on record?
A: 8.57 µg/mL

Q: For B5, which EC50 is on record?
A: 6.42 µg/mL

Q: How did the EC50 turn out when B6 was run?
A: 0.844 µg/mL

Q: How did the EC50 turn out when B7 was run?
A: 0.608 µg/mL

Target: T1, monkey CLDN6 (Cyno CLDN6)
Experiment: FACS
Remark: another data set of the same source

Q: For B2, which EC50 is on record?
A: 0.0916 µg/mL

Q: B3 was tested. Which EC50 did it give?
A: 1.28 µg/mL

Q: With B4 as the binder, how does the EC50 read?
A: 0.844 µg/mL

Q: For B5, which EC50 is on record?
A: 0.97 µg/mL

Q: With B7 as the binder, how does the EC50 read?
A: 0.636 µg/mL

Target: T3, human CLDN6
Experiment: FACS; HepG2 cells

Q: How did the EC50 turn out when B8 was run?
A: 0.521 µg/mL

Target: T3, human CLDN6
Experiment: FACS; HepG2 cells, FIG. 24

Q: How did the EC50 turn out when B2 was run?
A: 0.537 µg/mL
